Assays:
[1] = target: Elk receptor on transfected 3T3 fibroblasts; experiment: cell-based or functional assay
[2] = target: Eck receptor chimera (ectodomain of the Eck receptor fused to the cytoplasmic domain of the FGF receptor) on BAF cells; experiment: cell-based or functional assay

Row | Substance | potency in the phosphorylation assay, clustered against unclustered ligand [1] [fold] | potency in the proliferation assay, clustered against unclustered ligand [2] [fold]
1 | soluble myc-tagged Efl-3 (ELK-L) (ligand) | 100 | –
2 | soluble Efl-2 (EHK-1L) produced in COS cells (ligand) | – | 100
3 | soluble myc-tagged Efl-1 (B61) (ligand) | – | 100
